Source: the nanobody polyreactivity screen of Harvey et al. (2022)

Assay: yeast display, Sf9 membrane polyspecificity reagent, FACS + sequencing; frameworks hold sequencing errors
Procedure, shortened: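 Synthetic nanobody libraries on Saccharomyces cerevisiae BJ5465 were galactose-induced for 36–48 hours, stained 1 hour at 4 °C with 10% biotinylated, detergent-solubilized Sf9 membrane reagent and enriched on streptavidin microbeads. FACS then separated cells into low and high (top ~1%) gates by anti-HA (expression) and streptavidin (reagent binding) fluorescence. Genes were colony-PCR amplified, MiSeq 2 × 250 sequenced and CDR-length filtered. A clone's polyreactivity label is that of its gate of origin.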

Sequence	polyreactivity (PSR sort gate)
QVQLVEAGGGLVQAGGSLRLSCAASAFTFSPTAMGWYRQAPGKERELGAAIDWSGDRTYYADSVKGRFTISRAHAKNTVYLQMNSLKPEDTGVYYCNVVRRSPGDYSYYYWGQGSQVTVSS	low polyreactivity
QVQLVEAGGGLVQAGGSLRLSCAASGFIFPSYVRGWYSQAPGKERELVATISRSGGSTYYADSVKGRFTISRDNAKNTGYLQMNSLKPEDTAVYYCATRRRGPYSPYSPYDYWGQGTQVTVSS	high polyreactivity
QVQLVEAGGGLVQAGGSLRLSCAASGFILENYAMGWNRQAPGKERELVAAISGSGGTTYYADSVKGRFTISRDNAKNTVYLQMNSLKPEDTAVYYCNRDRLLRQYDYWGQGTQVTVSS	high polyreactivity
QVQLVEAGGGLVQAGGSLRLSCAASGGTFNSNAMGWYRQAPGKERELGASITWRGGTYYADSVKGRFTISRDNAKNTVYLQMNSLKPEDTAVYYCAARGTIPGIHWIYYYWGQGTQVTVSS	high polyreactivity
QVQLVEAGGGLVQAGGSLRLSCAASGIIFYLYTMGWYRPAPGKERELVAAISSSDGSTYYADSVKGRFTISRDNAKNTVYLQMNSLKPEDTAVYYCAAEYRGYLDDYYYWGQGTQVTVSS	high polyreactivity
QVQLVEAGGGLVQAGGSLRLSCAASGITLYLYVMGWYRQAPGKEREFVAAIRWSGGSTYYADSVKGRFTISRDNAKNTVYLQMNSLKPEDTAVYYCNAEVYCYYSARRPGYEYWGQGTQVTVSS	low polyreactivity
QVQLVEAGGGLVQAGGSLRLSCAASGSIFGYYAMGWYRQAPGKERELVAAISYRGGSTYYADSVKGRFTISRDNAKNTVYLQMNSLKPEDTAVYYCNAGGRRRIFAHSSTGDYWGQGTQVTVSS	high polyreactivity
QVQLVEAGGGLVQAGGSLRLSCAASGSIFSHNAMGWYRQAPGKERELVAAISVSGGTTYYADSVKGRFTISRDNAKNTVYLQMNSLKPEDTAVYYCAAKRFQGVGYLGQGTQVTVSS	high polyreactivity
QVQLVEAGGGLVQAGGSLRLSCAASGSIFVGYAMGWYRPAPGKEREFVAAINYRGGATYYADSVKGRFTISRDNAKNTDYLQMNSLQPEDTAVYYCAVGGWVIYPASLDYWGQGTQVTVSS	low polyreactivity
QVQLVEAGGGLVQAGGSLRLSCAASGYTFGKNAMGWYRQAPGKERELVAAITYSGGSTYYADSVKGRFTISRDNAKNTVYLQMNSLKPEDTAVYYCAADNPSDVYDTWVYYWGQGTQVTVSS	high polyreactivity
QVQLVEAGGGLVQAGGSLRLSCASSGNTFYPYAMGWYRQAPGKERELVAVITSGTDTYYADSVKARFTISRDNAKNTVYLQMNSLKPEDTAVYYCAASLYWRYGYWGQGTQVTVSS	high polyreactivity
QVQLVEAGGGLVQAGGSLRLTCAASGPIFLSKAMGWYRQAPGTERELVAAINSGGNTDYADSVKARFTISRDNEKNTFYLQMNSLKPEDTAVYYCAADAFSWDHDYWGQGTQVTVSS	low polyreactivity
QVQLVEAGGGLVQAGGSLRLTCAASVRTFTGYAMGCYRQAPGTERELVAAMTLSGGSTYYADSVKGRFTISRDNAKNTVYLQMNSLKPEDTAVFYCAAKWWHFYPYDYWGQGTQVTVSS	high polyreactivity
QVQLVEAGGGLVQAGGTLRLSCDPSGLIFGLYAMGWYRHAPGKERELVAAISESGGGITYYADSVKGRFTISRDNAKNTVYLQMYSLKPEDTAVYYCNADRYVWAGFDFSTYDYWGQGTLVTVSS	low polyreactivity
QVQLVEAGGGLVQSGGSLRLSCAASGSIFNIYAMGWSRQAAGKDRELVAVISSRGGRSYYADSVKGRFTISRDNAKNTVYLQMTSLKPEDTAVYYCAAGYLRQGYRGYDYWGQGTQVTVSS	high polyreactivity
QVQLVEAGGGVVQAGGSLRLSCAASGIIFYPYALGWYRQAPGKERELVADITSGGGTNYADSVKGRFTISRDNAKNTVYLQMNSLKPEDTAVYDCAAEVRGYHWGTYYEFYYWGQGTQVTVSS	low polyreactivity
QVQLVEAVGGLVQAGGSLRLSCAASGNTYYGNAMGWYRQAPGKEREFVAAITIRTGSTYYADSVKGRFTISRDNAKNTVYLQMNSLKPDDTAVYYCAADAYWRWNWYDYWGQGTQVTVSS	high polyreactivity
QVQLVEEGGGLVQAGGSLSLSCAASGRIFKTNSMGWYIQAPGKERELVAGSTDSGDSTYYADSVKGRFTISRDNAKNTVYLQMNSLKPEDTAVYYCATDPASPYIYDYWGQGTQVTVSS	low polyreactivity
QVQLVEKGGGLVQAGGSLRLSCAASGRTFRSNAMGWYRQAPGKERELVAAIRSRGGSTYYADSVKGRFTISRDNAKNTVYLQMNSLKPEDTAVYYCAAKHGSTSHDSWGQGTQVTVSS	high polyreactivity
QVQLVEPGGGLVQAGGSLRLSCAASGFTFYDYAMGWYRQAPGKERELVARINGGGGTNYADSVKGRFTISRDNAKNTVYLQMNSLKPEDSAVYYCAADLYFRQGDVDLLRYDYWGQGTQVTVSS	low polyreactivity
QVQLVEPGGGLVQAGGSLRLSCAASGSIFAYYVMGWYRQAPGKERELVAGISFSGGTTYYADSVNGRFTISRDNAKNTVYLQMNSLKPEDTAVYYCNADPDHREFDYWGQGTQVTVSS	low polyreactivity
